Source: the Immune Epitope Database (IEDB)

Columns and labels:
HLA-A*01:01 [1] = assay: IEDB peptide-MHC binding, purified MHC/direct/fluorescence; filed as Kd, often an IC50 or EC50 that approximates it; ≥ and ≤ were set here for values at or beyond the usual limits of such assays; details: source organism: Salmonella enterica subsp. enterica serovar Typhimurium
HLA-A*30:02 = assay: IEDB peptide-MHC binding, purified MHC/competitive/radioactivity; filed as Kd, often an IC50 or EC50 that approximates it; ≥ and ≤ were set here for values at or beyond the usual limits of such assays
HLA-A*30:01 = assay: as above
HLA-A*01:01 [2] = assay: as above
HLA-B*53:01 = assay: as above
HLA-B*40:01 = assay: IEDB peptide-MHC binding, purified MHC/direct/fluorescence; filed as Kd, often an IC50 or EC50 that approximates it; ≥ and ≤ were set here for values at or beyond the usual limits of such assays
HLA-A*02:01 [3] = assay: IEDB peptide-MHC binding, purified MHC/competitive/fluorescence; ≥ and ≤ were set here for values at or beyond the usual limits of such assays
HLA-A*02:01 [4] = assay: IEDB peptide-MHC binding, purified MHC/competitive/fluorescence; filed as Kd, often an IC50 or EC50 that approximates it; ≥ and ≤ were set here for values at or beyond the usual limits of such assays; details: source organism: Bacillus anthracis str. A0488
HLA-A*23:01 = assay: IEDB peptide-MHC binding, purified MHC/competitive/radioactivity; filed as Kd, often an IC50 or EC50 that approximates it; ≥ and ≤ were set here for values at or beyond the usual limits of such assays
HLA-B*51:01 [5] = assay: IEDB peptide-MHC binding, purified MHC/competitive/fluorescence; filed as Kd, often an IC50 or EC50 that approximates it; ≥ and ≤ were set here for values at or beyond the usual limits of such assays; details: source organism: Variola virus
HLA-B*58:01 = assay: IEDB peptide-MHC binding, purified MHC/direct/fluorescence; filed as Kd, often an IC50 or EC50 that approximates it; ≥ and ≤ were set here for values at or beyond the usual limits of such assays; details: source organism: Haemophilus influenzae
HLA-B*15:01 = assay: as above; details: source organism: Haemophilus influenzae
HLA-A*11:01 = assay: as above
HLA-A*24:02 [6] = assay: IEDB peptide-MHC binding, purified MHC/competitive/fluorescence; ≥ and ≤ were set here for values at or beyond the usual limits of such assays
HLA-B*35:01 = assay: IEDB peptide-MHC binding, purified MHC/competitive/radioactivity; filed as Kd, often an IC50 or EC50 that approximates it; ≥ and ≤ were set here for values at or beyond the usual limits of such assays
HLA-A*26:01 = assay: IEDB peptide-MHC binding, purified MHC/competitive/fluorescence; filed as Kd, often an IC50 or EC50 that approximates it; ≥ and ≤ were set here for values at or beyond the usual limits of such assays; details: source organism: Yersinia pestis Nepal516
HLA-B*51:01 [7] = assay: IEDB peptide-MHC binding, purified MHC/competitive/radioactivity; filed as Kd, often an IC50 or EC50 that approximates it; ≥ and ≤ were set here for values at or beyond the usual limits of such assays
HLA-A*03:01 = assay: as above; details: source organism: Dengue virus 2 Jamaica/1409/1983
HLA-A*24:02 [8] = assay: as above
[9] = source organism: Dengue virus 2 Jamaica/1409/1983
[10] = source organism: Dengue virus 1 Brazil/97-11/1997
[11] = source organism: Dengue virus 3 Martinique/1243/1999
[12] = source organism: Sudan ebolavirus
[13] = source organism: Vaccinia virus WR
[14] = source organism: Zaire ebolavirus
[15] = source organism: Dengue virus 4 Philippines/H241/1956

NSRHNAQHK
Kd (HLA-A*01:01 [1]): ≥ 20 µM

SWHYDQDHPY
Kd (HLA-A*30:02; [9]): ≥ 69.7 µM

KGKRALTPPV
Kd (HLA-A*30:01; source organism: Dengue virus 4 Dominica/814669/1981): 0.0124 µM

VSSWEEVPY
Kd (HLA-A*30:02; [10]): 1.86 µM
Kd (HLA-A*01:01 [2]; [10]): 0.269 µM

EPETPNMDVI
Kd (HLA-B*53:01; [11]): 10.8 µM

SEFCDMLRL
Kd (HLA-B*40:01; source organism: Mammarenavirus guanaritoense): 0.0842 µM

YGTLIIDEV
IC50 (HLA-A*02:01 [3]; source organism: Variola virus): 3.32 µM

FMSMVSHEL
Kd (HLA-A*02:01 [4]): 0.0005 µM

WIPYFGPGA
IC50 (HLA-A*02:01 [3]; [12]): 1.46 µM

HAFSSLLSG
Kd (HLA-A*30:01; [13]): 1.11 µM

TYQNKVVKV
Kd (HLA-A*23:01; [11]): 6.52 µM

FPPEIINVI
Kd (HLA-B*51:01 [5]): 0.213 µM

LTTLATIST
IC50 (HLA-A*02:01 [3]; [14]): 7.63 µM

SQKHFDTWW
Kd (HLA-B*58:01): 3.04 µM
Kd (HLA-B*15:01): 0.473 µM

LTLKGTSYK
Kd (HLA-A*11:01; source organism: Yellow fever virus): 0.0056 µM

HYWTAQEQH
IC50 (HLA-A*24:02 [6]; [12]): 51.1 µM

GNRGSTSFK
Kd (HLA-A*30:01; [13]): 0.00204 µM

FEKEGYSLV
Kd (HLA-B*40:01; source organism: Influenza A virus (A/Netherlands/458/98 (H3N2))): 0.118 µM

SAIALGVAT
IC50 (HLA-A*02:01 [3]; [14]): ≥ 242 µM

MPTVIEELEK
Kd (HLA-B*35:01; [15]): 2.62 µM
Kd (HLA-B*53:01; [15]): 5.38 µM

TTRGETLFY
Kd (HLA-A*26:01): 0.0341 µM

RNLNVTTQS
IC50 (HLA-A*02:01 [3]; source organism: Vaccinia virus): ≥ 558 µM

MKDEPVVFS
IC50 (HLA-A*02:01 [3]; [14]): ≥ 420 µM

GRVNPGTYV
IC50 (HLA-A*24:02 [6]; source organism: Variola virus): 0.0743 µM

LPLPWTSGAS
Kd (HLA-B*51:01 [7]; [10]): 10.6 µM
Kd (HLA-B*35:01; [10]): 0.938 µM

TPQDNQLAY
Kd (HLA-B*35:01; [10]): 0.0103 µM

IPITAAAWY
Kd (HLA-A*30:02; [9]): 0.00247 µM
Kd (HLA-B*35:01; [9]): 0.00619 µM
Kd (HLA-B*53:01; [9]): 0.0266 µM

RTLAKEGIK
Kd (HLA-A*30:01; [9]): 0.217 µM
Kd (HLA-A*03:01): 0.03 µM

NPTVDGITV
Kd (HLA-B*51:01 [7]; [9]): 6.3 µM

DQNYVCKHTY
Kd (HLA-A*30:02; [11]): 8.02 µM

WFFDLPLPW
Kd (HLA-A*23:01; [11]): 0.024 µM
Kd (HLA-A*24:02 [8]; [11]): 0.0622 µM

ETFLQSPPI
IC50 (HLA-A*02:01 [3]; [12]): ≥ 143 µM
IC50 (HLA-A*24:02 [6]; [12]): 13.9 µM

TPKGAVMDI
Kd (HLA-B*51:01 [7]; [15]): 4.22 µM

NETEYLFEV
IC50 (HLA-A*02:01 [3]; [14]): 43.6 µM

VTRKHMILV
Kd (HLA-A*30:01; [15]): 0.0194 µM

RGRIGRNPA
Kd (HLA-A*30:01; [15]): 0.0323 µM

DYMTSMKRF
Kd (HLA-A*23:01; [10]): 0.791 µM
Kd (HLA-A*24:02 [8]; [10]): 0.214 µM

LEVPAMGVL
Kd (HLA-B*40:01; source organism: Mycobacterium tuberculosis): 0.025 µM

TPKGPKVKY
Kd (HLA-A*11:01; source organism: SARS-CoV1): ≥ 46.1 µM

PFARLLNLS
IC50 (HLA-A*02:01 [3]; [14]): ≥ 309 µM
IC50 (HLA-A*24:02 [6]; [14]): 15.8 µM

IDNNTFVRL
IC50 (HLA-A*02:01 [3]; [12]): ≥ 149 µM
IC50 (HLA-A*24:02 [6]; [12]): 67.9 µM

SIGKMLESTY
Kd (HLA-A*30:02; [15]): 1.56 µM

FAGPVSQHNY
Kd (HLA-A*30:02; [9]): 0.0116 µM
Kd (HLA-B*35:01; [9]): 0.0384 µM
Kd (HLA-B*53:01; [9]): 0.435 µM

RRWGGTCRI
IC50 (HLA-A*24:02 [6]; [12]): 0.708 µM

RHERGRPLLF
Kd (HLA-A*23:01; [15]): 0.248 µM

RVFNEYGFV
Kd (HLA-A*30:01; [13]): 0.142 µM

QPENLEYTI
Kd (HLA-B*53:01; source organism: Dengue virus 2 16681-PDK53): 0.028 µM

AWNVWEVEDY
Kd (HLA-A*30:02; [11]): ≥ 69.7 µM

AFWETKKNL
IC50 (HLA-A*02:01 [3]; [14]): ≥ 242 µM
IC50 (HLA-A*24:02 [6]; [14]): 2.48 µM

ASDTPSATT
IC50 (HLA-A*02:01 [3]; [14]): ≥ 614 µM

GLAWIPYFG
IC50 (HLA-A*02:01 [3]; [14]): 0.134 µM
IC50 (HLA-A*24:02 [6]; [14]): 62.6 µM

VTTWENVPY
Kd (HLA-A*30:02; [11]): 0.0109 µM
Kd (HLA-A*01:01 [2]; [11]): 0.59 µM

YTDFPCQYV
Kd (HLA-A*01:01 [2]; source organism: Homo sapiens): 0.0018 µM

WFFDLPLPWT
Kd (HLA-A*30:01; [11]): 16.3 µM
